Two molecules from US20230279085A1 (ABL BIO, published 2023) can be followed below.

In one test the target is alpha-synuclein monomer (Homo sapiens, UniProt P37840 1-140). The test can be described thus: SPR (BIAcore), antibody captured on Protein A, sample alpha-Syn monomer, 1:1 binding fit printed under a sensorgram that shows no binding (see non_binding). The protocol:
The quantitative analysis of the binding of alpha-synuclein antibody prepared in Example 1 to monomer and aggregate antigens was performed using BIAcore analysis.
(§1) The used instrument was T200 (GE Healthcare, S/N: 1565888). Protein A is used as a chip (GE Healthcare, Cat. 29-1275-56). 10 mM Glycine-HCl pH 1.5 (GE Healthcare, Cat. BR-1003-54) was regeneration buffer. The running buffer, analyte dilution, and the sample dilution buffer were HBS-EP. The α-syn antibodies (3A9, 9B11 and 11F11) prepared in Example 1 were diluted with 1×HBS-EP (GE Healthcare, Cat. BR-1006-69), and alpha-synuclein monomer (1 mg/ml) and fibril protein (3 mg/ml) were serially diluted in duplicate and analyzed at 6 concentrations (0, 0.39, 1.56, 6.25, 25, 100 nM) including 0 nM in total. For the capture, the monomer was for RU of 800 (theoretical), and a fibril was for RU of 100 (theoretical). The capture phase was performed at contact time of 60 seconds, a flow rate of 30 μl/min, and a stabilization period of 180 seconds. The association phase was performed at the association time of 120 seconds and the flow rate was 30 μl/min. The dissociation phase was performed at the dissociation time of 360 seconds and the flow rate of 30 μl/min. The regeneration phase was performed twice time at the regeneration time of 240 seconds (primary) and 60 seconds (secondary) and a flow rate of 30 μl/min. […]
(In general: SPR reads the build-up and loss of mass on a sensor chip optically.)

In test [1] the target is alpha-synuclein aggregate (fibril) (Homo sapiens, UniProt P37840 1-140). Kind of test: SPR (BIAcore), Protein A capture, file ProteinA-Fibril-main-5th, sample aSyn180330, 1:1 binding fit, 25 °C. The protocol: as §1, with “μl/min.” for “μl/min. The regeneration phase was performed twice time at the regeneration time of 240 seconds (primary) and 60 seconds (secondary) and a flow rate of 30 μl/min.”
The BIAcore analysis was performed to quantitatively analyze the binding affinity of the chimeric antibodies (Ch11F11) obtained in Example 8, and the humanized antibodies (Hu11F11) obtained in Example 9, according to the substantially same method of Example 2-3. […]

The term koff denotes the rate constant with which the complex falls apart. A higher koff goes with a short-lived complex. Broadly, the kon is the rate constant with which the complex forms. High values mean fast association, low ones slow association.

B1: Ch11F11 chimeric antibody (antibody, human IgG1, V domains shown)
VH: EVQLQESGGGLVQPGGSLRLSCATSGFTFSDFYMEWVRQPPGKRLEWIAASRNKANDYTTEYSASVKGRFIVSRDTSQSILYLQMNALRAEDTAIYYCARDAHGKPFAYWGQGTLVTVSA
VL: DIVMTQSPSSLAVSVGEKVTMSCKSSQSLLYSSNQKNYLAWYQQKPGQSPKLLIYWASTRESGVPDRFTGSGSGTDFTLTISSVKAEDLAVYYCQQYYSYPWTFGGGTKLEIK
notes: Chimeric human IgG1; also called chimeric 11F11; Ch11F11(-RD)
In the test with alpha-synuclein monomer, B1 showed a koff of 2.65e-06 s⁻¹ and an on-rate (kon) of 2.07e+06 M⁻¹ s⁻¹.

B2: hu11F11(ver.3) (antibody, IgG1, V domains shown)
VH: EVQLVESGGGLVQPGGSLRLSCATSGFTFSDFYMEWVRQPPGKRLEWIAASRNKANDYTTEYSASVKGRFTISRDTSKSSLYLQMNSLRAEDTAIYYCARDAHGKPFAYWGQGTTVTVSS
VL: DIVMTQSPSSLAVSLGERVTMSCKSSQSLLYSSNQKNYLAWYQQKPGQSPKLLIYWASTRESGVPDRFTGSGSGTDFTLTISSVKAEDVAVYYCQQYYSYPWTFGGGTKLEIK
notes: Humanized IgG1; also called Hu11F1_ver3; Hu11F11_v3
B2: in test [1], the off-rate (koff) amounted to 0.000266 s⁻¹.
